Results published in US9283300B2, “Use of midkine protein and the protein-containing medical device” (GENERAL REGENERATIVES, LTD, priority 2009, dated 2016).

Experiments:
rat primary chondrocytes = assay: Serum-free culture of chondrocytes; type: cell-based; conditions: for promotion of cell expansion over the control cultures without rhMK: serum-free medium after 24 h in DMEM with 10% FBS
Method: 1. Preparation of primary chondrocyte. The 8-week-old male SD rats were sacrificed under sterile conditions. The articular cartilage, fibrocartilage and elastic cartilage tissue were isolated from the femur joints, meniscus and outer ear respectively using a scalpel. The isolated cartilage were cut into small pieces, washed twice with phosphate buffered saline (PBS), and digested with trypsin (0.25% (w/v) trypsin/0.02% (w/v) EDTA) at 37° C. for 30 min. The articular cartilage and elastic cartilage were further digested with 0.2% type II collagenase for additional 16 h, and the fibrocartilage were further digested with 0.15% type I collagenase for additional 16 h. After digestion, three chondrocytes were passed through 100 μm filter (Falcon, USA) into 15 ml centrifuge tubes, centrifuged at room temperature at 2000 rpm for 5 min. Cells were resuspended in DMEM containing 10% FBS (fetal bovine serum). Trypan blue staining of the freshly isolated cells was used to monitor the percentage of live cells under the microscope. When the number of live cells is more than 95%, it was used for subsequent experiments.
4. Serum-free culture. The primary chondrocytes were cultured with DMEM containing 10% FBS for 24 h and washed with serum-free culture medium once. The cells were further cultured with DMEM medium with ITS+1 (composed of insulin-transferrin-selenium, Sigma, USA). […] Cell medium was changed every two days. When cells grew to the confluence of 85% to 90%, they were collected by trypsin-digestion and subcultured as previously described.

[1] = system: rat auricular chondrocytes; assay: Phenotype of chondrocytes in monolayer culture (semi-quantitative PCR of Col2a1, collagen II immunohistochemical staining); type: cell-based
Method: 3. Culture of primary chondrocytes in monolayer. Three types of primary chondrocytes were suspended in DMEM medium containing 10% FBS, adjusted to 5×10^4 cells/ml, added to 6-well plate with 2 ml medium/well, and incubated in 37° C. at 5% CO2. Experiment was divided into two groups: control group and experimental group (with 3 μg/ml rhMK). Cell medium was changed every two days. When the cells grew to the confluence of 85% to 90%, the cells were collected by trypsin digestion, washed in PBS by centrifugation. The cells were resuspended in DMEM containing 10% FBS. Cell survival was monitored by trypan blue staining. Part of the cells were used for cell passage; some were for RNA extraction; some were cytospined onto a glass slide for later immunohistochemical staining and the slides were stored at −80° C. Primary cells or passage 0 (P0) were cultured for 7 days. The newly passaged cells were further cultured in a 6-well plate for 3 days which was then collected by trypsin-digestion and marked as passage P1. The cell amplification at each passage=total number of cells at output/total number of cells at initial input. 6. Immunohistochemical staining. […] RNA extraction and semi-quantitative PCR. […] PCR products were separated on 1.5% (w/v) agarose gels and quantified after staining with ethidium bromide in comparison with internal control gene expression of β-actin.

B1: rhMK: recombinant human midkine mature protein (SEQ ID NO.1) expressed in E. coli and purified by ion-exchange chromatography (protein, listed as Homo sapiens)
chain: MKKKDKVKKGGPGSECAEWAWGPCTPSSKDCGVGFREGTCGAQTQRIRCRVPCNWKKEFGADCKYKFENWGACDGGTGTKVRQGTLKKARYNAQCQETIRVTKPCTPKTKAKAKAKKGKGKD
- promotion of cell expansion over the control cultures without rhMK (rat primary chondrocytes; passage 1): 34%
- promotion of cell expansion over the control cultures without rhMK (rat primary chondrocytes; passage 2): 51%
- promotion of cell expansion over the control cultures without rhMK (rat primary chondrocytes; passage 3): 18%
- cell attachment and proliferation in serum-free medium (rat primary chondrocytes; three types of chondrocytes cultured directly in serum-free medium, rhMK 3 μg/ml): did not make the cell attachment and proliferation
- effect on Col2a1 expression (semiquantitative PCR) ([1]; auricular chondrocyte after one passage): inhibited the decreasing of the Col2a1
- chondrocytes stained collagen II positive ([1]; auricular chondrocytes, passage one, rhMK group, not detected without rhMK): about 50%
